Measurements from article PMC8696220 (Cancer Communications, 2021).

Experiments:
His-Fascin = His-Fascin (human, UniProt Q16658 1-493); test: pull-down
GST-Fascin = GST-Fascin (human, UniProt Q16658 1-493); test: pull-down

binding result (His-Fascin)	binding result (GST-Fascin)	Binder
binds		GST-fused C-terminal BROMO (659-832) domain of PCAF (domain or fragment) FSVIIKKQKEIIKKLIERKQAQIRKVYPGLSCFKDGVRQIPIESIPGIRETGWKPSGKEKSKEPRDPDQLYSTLKSILQQVKSHQSAWPFMEPVKRTEAPGYYEVIRFPMDLKTMSERLKNRYYVSKKLFMADLQRVFTNCKEYNPPESEYYKCANILEKFFFSKIKEAGLIDK
binds		GST-fused N-terminal (1-492) domain of PCAF (domain or fragment) MSEAGGAGPGGCGAGAGAGAGPGALPPQPAALPPAPPQGSPCAAAAGGSGACGPATAVAAAGTAEGPGGGGSARIAVKKAQLRSAPRAKKLEKLGVYSACKAEESCKCNGWKNPNPSPTPPRADLQQIIVSLTESCRSCSHALAAHVSHLENVSEEEMNRLLGIVLDVEYLFTCVHKEEDADTKQVYFYLFKLLRKSILQRGKPVVEGSLEKKPPFEKPSIEQGVNNFVQYKFSHLPAKERQTIVELAKMFLNRINYWHLEAPSQRRLRSPNDDISGYKENYTRWLCYCNVPQFCDSLPRYETTQVFGRTLLRSVFTVMRRQLLEQARQEKDKLPLEKRTLILTHFPKFLSMLEEEVYSQNSPIWDQDFLSASSRTSQLGIQTVINPPPVAGTISYNSTSSSLEQPNAGSSSPACKASSGLEANPGEKRKMTDSHVLEEAKKPRVMGDIPMELINEVMSTITDPAAMLGPETNFLSAHSARDEAARLEERRG
binds		GST-PCAF (enzyme) MSEAGGAGPGGCGAGAGAGAGPGALPPQPAALPPAPPQGSPCAAAAGGSGACGPATAVAAAGTAEGPGGGGSARIAVKKAQLRSAPRAKKLEKLGVYSACKAEESCKCNGWKNPNPSPTPPRADLQQIIVSLTESCRSCSHALAAHVSHLENVSEEEMNRLLGIVLDVEYLFTCVHKEEDADTKQVYFYLFKLLRKSILQRGKPVVEGSLEKKPPFEKPSIEQGVNNFVQYKFSHLPAKERQTIVELAKMFLNRINYWHLEAPSQRRLRSPNDDISGYKENYTRWLCYCNVPQFCDSLPRYETTQVFGRTLLRSVFTVMRRQLLEQARQEKDKLPLEKRTLILTHFPKFLSMLEEEVYSQNSPIWDQDFLSASSRTSQLGIQTVINPPPVAGTISYNSTSSSLEQPNAGSSSPACKASSGLEANPGEKRKMTDSHVLEEAKKPRVMGDIPMELINEVMSTITDPAAMLGPETNFLSAHSARDEAARLEERRGVIEFHVVGNSLNQKPNKKILMWLVGLQNVFSHQLPRMPKEYITRLVFDPKHKTLALIKDGRVIGGICFRMFPSQGFTEIVFCAVTSNEQVKGYGTHLMNHLKEYHIKHDILNFLTYADEYAIGYFKKQGFSKEIKIPKTKYVGYIKDYEGATLMGCELNPRIPYTEFSVIIKKQKEIIKKLIERKQAQIRKVYPGLSCFKDGVRQIPIESIPGIRETGWKPSGKEKSKEPRDPDQLYSTLKSILQQVKSHQSAWPFMEPVKRTEAPGYYEVIRFPMDLKTMSERLKNRYYVSKKLFMADLQRVFTNCKEYNPPESEYYKCANILEKFFFSKIKEAGLIDK
	binds	His-PCAF (enzyme) MSEAGGAGPGGCGAGAGAGAGPGALPPQPAALPPAPPQGSPCAAAAGGSGACGPATAVAAAGTAEGPGGGGSARIAVKKAQLRSAPRAKKLEKLGVYSACKAEESCKCNGWKNPNPSPTPPRADLQQIIVSLTESCRSCSHALAAHVSHLENVSEEEMNRLLGIVLDVEYLFTCVHKEEDADTKQVYFYLFKLLRKSILQRGKPVVEGSLEKKPPFEKPSIEQGVNNFVQYKFSHLPAKERQTIVELAKMFLNRINYWHLEAPSQRRLRSPNDDISGYKENYTRWLCYCNVPQFCDSLPRYETTQVFGRTLLRSVFTVMRRQLLEQARQEKDKLPLEKRTLILTHFPKFLSMLEEEVYSQNSPIWDQDFLSASSRTSQLGIQTVINPPPVAGTISYNSTSSSLEQPNAGSSSPACKASSGLEANPGEKRKMTDSHVLEEAKKPRVMGDIPMELINEVMSTITDPAAMLGPETNFLSAHSARDEAARLEERRGVIEFHVVGNSLNQKPNKKILMWLVGLQNVFSHQLPRMPKEYITRLVFDPKHKTLALIKDGRVIGGICFRMFPSQGFTEIVFCAVTSNEQVKGYGTHLMNHLKEYHIKHDILNFLTYADEYAIGYFKKQGFSKEIKIPKTKYVGYIKDYEGATLMGCELNPRIPYTEFSVIIKKQKEIIKKLIERKQAQIRKVYPGLSCFKDGVRQIPIESIPGIRETGWKPSGKEKSKEPRDPDQLYSTLKSILQQVKSHQSAWPFMEPVKRTEAPGYYEVIRFPMDLKTMSERLKNRYYVSKKLFMADLQRVFTNCKEYNPPESEYYKCANILEKFFFSKIKEAGLIDK
